Earlier results in article PMC4438997.

Molecular target: Ezrin FERM (Homo sapiens) (UniProt P15311)
Sequence of UniProt P15311 (P15311 1-299): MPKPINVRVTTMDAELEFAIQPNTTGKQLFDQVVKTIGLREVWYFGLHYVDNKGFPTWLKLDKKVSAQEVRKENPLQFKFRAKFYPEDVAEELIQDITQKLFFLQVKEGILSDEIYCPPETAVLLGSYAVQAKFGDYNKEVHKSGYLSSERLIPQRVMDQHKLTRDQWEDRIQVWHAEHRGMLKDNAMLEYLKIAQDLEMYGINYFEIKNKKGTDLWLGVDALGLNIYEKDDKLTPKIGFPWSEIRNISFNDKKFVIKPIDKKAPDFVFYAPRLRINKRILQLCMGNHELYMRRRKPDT

Kd: 19 nM
Substance: NHERF1 C-terminal domain (from UniProt O14745)
